assay: yeast display, Sf9 membrane polyspecificity reagent, FACS + sequencing; frameworks hold sequencing errors
Summary of the method: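 In a synthetic yeast display library (Saccharomyces cerevisiae BJ5465), nanobody expression was induced with galactose for 36–48 hours. FACS gates were set low and high (top ~1%) using anti-HA fluorescence for expression and streptavidin fluorescence for binding of the Sf9 membrane reagent. Each polyreactivity label is drawn from the gate of origin.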

Sequence | polyreactivity (PSR sort gate)
QVQLVESGGGLVQAGGSLRLSCAASGFIFSYYAMGWYRQAPGKERELVAAISRNGGRTYYADSVKGRFTISRDNAKNTVYLQMNSLKPEDTAVYYCAATTYRTSSYIRYGSPKHDDYWGQGTQVTVSS | high polyreactivity
QVQLVESGGGLVQAGGSLRLSCAASGFIFSYYAMGWYRQAPGKERELVAAITDSGGSTYYADSVKGRFTISRDNAKNTVYLQMNSLKPEDTAVYYCAATYWWAYVWAYSHVKSTNDYWGQGTQVTVSS | low polyreactivity
QVQLVESGGGLVQAGGSLRLSCAASGFIFSYYAMGWYRQAPGKERELVAAITSSGGSTYYADSVKGRFTISRDNAKNTVYLHLNSLKPEDTAVYYCNAYVRRTRDYDYWGQGTQVTVSS | high polyreactivity
QVQLVESGGGLVQAGGSLRLSCAASGFIFSYYAMGWYRQAPGKERELVAAMSSSGSRTYYADSVKGRFTISRDNAKNTVYLQMNSLKPEDTAVYYCAARGWFRGEFDYWGQGTQVTVSS | high polyreactivity
QVQLVESGGGLVQAGGSLRLSCAASGFIFSYYAMGWYRQAPGKERELVAVISWSGGSTYYADSVKGRFTISRDNAKNTVYLQMNSLKPEDTAVYYCNAGYTYNRVIWPYYYWGQGTQVTVSS | high polyreactivity
QVQLVESGGGLVQAGGSLRLSCAASGFIFSYYTMGWYRQAPGKERELVAAISRNGGSTYYADSVKGRFTISRDNAKNTVYLQMNSLKPEDTAVYYCAKRVFNYQRYDYWGQGTQVTVSS | high polyreactivity
QVQLVESGGGLVQAGGSLRLSCAASGFIFSYYTMGWYRQAPGKERELVAAISRRGGSTYYADSVKGRFTISRDNAKNTVYLQMNSLKPEDTAVYYCAAPRDWDAGDYWGQGTQVTVSS | high polyreactivity
QVQLVESGGGLVQAGGSLRLSCAASGFIFTANAMGWYRQAPGKEMELVAAISRSGGRTYYADSVKGRFTISRDNAKNTVYLQMNSLKPEDTAVYYCAAPYRSYDWYDYWGQGTQVTVSS | high polyreactivity
QVQLVESGGGLVQAGGSLRLSCAASGFIFTAYAMGWYRQAPGKERELVAGIRSGSATYYADSVKGRFTISRDNAKNTVYLQMNILKPEDTAVYYCNAEKYNFIYAYEYWGQGTQVTVSS | low polyreactivity
QVQLVESGGGLVQAGGSLRLSCAASGFIFTDNAMGWYRQAPGKERELVAAISKNGGSTYYADSVKGRFTISRDNAKNTVYLQMNSLKPEDTAVYYCNTRRKNFDKSSQVEYWGQGTQVTVSS | high polyreactivity
QVQLVESGGGLVQAGGSLRLSCAASGFIFTEYAMGWYRQAPGKEREFVAAISWSGGSTYYADSVKGRFTISRDNAKNTVYLQMNSLKPEDTAVYYCAKRSRGVKYDYWGQGTQVTVSS | high polyreactivity
QVQLVESGGGLVQAGGSLRLSCAASGFIFTFYALGWYRQAPGKEREFVASIDWGDGSTYYADSVKGRFTISRDNAKNTVYLQMNSLKPEDTAVYYCAHDYDGYVWDTEYDYWGQGTQVTVSS | low polyreactivity
QVQLVESGGGLVQAGGSLRLSCAASGFIFTFYAMGWYRQAPGKEREFVASIDWGDGSTYYADSVKGRFTISRDNAKNTVYLQMNSLKPEDSAVYYCAHDYDGYVWDTEYDYWGQGTQVTVSS | low polyreactivity
QVQLVESGGGLVQAGGSLRLSCAASGFIFTGNVMGWYRQAPGKERELVAAIRWSGGRTYYADSVKGRFTISRDNAKNTVYLQMNSLIPEDTAVYYCNALGRVQGYKPGGLDYWGQGTQVTVSS | high polyreactivity
QVQLVESGGGLVQAGGSLRLSCAASGFIFTGNVMGWYRQGPGKERELVAGITYTSGSTYYADSVKGRFTISRDNAKNTVYLQMNSLKPEDTAVYYCAAEVYVPDYFQHKFDVEYEYWGLGTQVTVSS | low polyreactivity
QVQLVESGGGLVQAGGSLRLSCAASGFIFTGYAMGWYRQAPGKERELVAAITKSGGSTYYADSVKGRFTISRDNAKNTVYLQMNSLKPEDTAVYYFNTYLWRWSKGGYLGQGTQVTVSS | high polyreactivity
QVQLVESGGGLVQAGGSLRLSCAASGFIFTKYVMGWYRQAPGKERELVAAISLNGGRTYYADSVKGRFTISRDNAKNTVDLQMNSLKPEDTAVYYCAVDAKAVSARTYDYGYWGQGTQVTVSS | high polyreactivity
QVQLVESGGGLVQAGGSLRLSCAASGFIFTQNGMGWYRQAPGKERELVAAISWSAGGTYYADSVKGRFTISRDNANNTVYLQMNSLKQEDTAVYYCNAELYFYWNVWVGYDYWGQGTQVTVSS | low polyreactivity
QVQLVESGGGLVQAGGSLRLSCAASGFIFTQYAMGWYRQAPGKERELVAAITRSGGRTYYADSVKGRFTISRDNAKNTVYLQMNSLIPEDTAVYYCAVDTVTRTVLVYGDRNDSWGQGTQVTVSS | high polyreactivity
QVQLVESGGGLVQAGGSLRLSCAASGFIFTRYAMGWYRQAPGKERELVAAISGTGGSTYYADSVKGRFTISRDNSKNTFFLQMNSLKPEDTAVYYCAAGYFVYLKYGYWGQGTKVTVSS | high polyreactivity
QVQLVESGGGLVQAGGSLRLSCAASGFIFTTYGMGWYRQAPGKERELVAAISYRGDSTYYADSVKGRFTISRDNAKNTVYLQMNSLKPEDTAVYYCAADVTQKPYGLSHGQDAYDYWGQGTQVTVSS | low polyreactivity
QVQLVESGGGLVQAGGSLRLSCAASGFIFTYNAMGWYIQAPGKEREFVASISRSGGRTYYADSVKGRFTISRDNAKNTVYLQMNSLKPEDTAVYYCAARNAYVYGMDYWGQGTQVTVSS | low polyreactivity

Sequence | polyreactivity (PSR sort gate)
QVQLVESGGGLVQAGGSLRLSCAASGFIFTYNAMGWYRQAPGKERELVASIRSTGGSTYYADSVKGRFTISRDNAKNTVYLQMNSLKPEDTAVYYCAARARGTNMYYWGQGTQVTVSS | high polyreactivity
QVQLVESGGGLVQAGGSLRLSCAASGFIFTYNTMGWDRQAPGKERELVAAISLRGGNTYYADSVKGRFTISRDNAKNTVYLQMHSLKPEDTAVYYCAALGKYRSGNYFGQGTQVTVSS | high polyreactivity
QVQLVESGGGLVQAGGSLRLSCAASGFIFTYYAMGWYRPEHGKERDLVATINWSDGSTRYADSVKGRFTISRDNAKNTDYLQMNSLKPEDTAVYYCAKDWFNRPSVEMDYWGQGTQVTVSS | low polyreactivity
QVQLVESGGGLVQAGGSLRLSCAASGFIFTYYAMGWYRQAPGKERELVAAISWDGGSTYYADSVKGRFTISRDNAKNTVYLQMNSLKPEDTAVYYCNRDLYGYVRYDYWGQGTQVTVSS | low polyreactivity
QVQLVESGGGLVQAGGSLRLSCAASGFIFVANAMGWYRQAPGKERELVAAISFSGGRTYYADSVKGRFTISRDNAKNTVYLQMNSLKPEDTAVYYCNTVSEWWAGDHPDAEFDYWGQGTQVTVSS | low polyreactivity
QVQLVESGGGLVQAGGSLRLSCAASGFIFVDNAMGWYRQAPGKERELVAAITYRGGSTYYADSVKGRFTISRDNAKNTVYLQMNSLKPEVTAVYYCNADYGDTFEYDYWGQGTQVTVSS | low polyreactivity
QVQLVESGGGLVQAGGSLRLSCAASGFIFVDYTMGWYRQAPGKERELVAAITWTGGSTYADSVKGRFTISRDNAKNTVYLQMNSLKPEDTAVYYCAAGQGPDMDYWGQGTQVTVSS | low polyreactivity
QVQLVESGGGLVQAGGSLRLSCAASGFIFVENAMGWYIQAPGKERELVASISRRGGSTYYADSVKGRFTISRDNAKNTVYLQMNSLKPEDTAVYYCAATLGRTRYNYWGQGTQVTVSS | high polyreactivity
QVQLVESGGGLVQAGGSLRLSCAASGFIFVFYAMGWYIQAPGKERELVAAITWSGGGTYYADSVKGRFTISRDNAKNTVYLQMNSLKPEDTAVYYCNTDASPYLFDYWGQGTQVTVSS | low polyreactivity
QVQLVESGGGLVQAGGSLRLSCAASGFIFVGYAMGWYRQAPGKERELVAAISYSGGRTYYADSVKGRFTISRDNAKNTVYLQMNSLKPEDTAVYYCAAQSRYGGKFYYWGQGTQVTVSS | high polyreactivity
QVQLVESGGGLVQAGGSLRLSCAASGFIFVKNAMGWYRQAPGKERELVAVISTRGGRTYYADSVKGRFTISRDNAKNTVYLQMNSMKPEDTAVYYCAAGDQYKTRRNGYGYWGQGTQVTVSS | high polyreactivity
QVQLVESGGGLVQAGGSLRLSCAASGFIFVKYAMGWYIQAPGKERELVAAITTSGTGTFYADSVKGRFTISRDNAKYTVYLQMNRLKPEDTAVYYCNALGHPGDDWGQGTQVTVSS | low polyreactivity
QVQLVESGGGLVQAGGSLRLSCAASGFIFVPYALGWYRQAPGKERELVAAISSGGSTYYADSVKGRFTISRDNAKNTVYLQMNSLKPEDTAVYYCNTRYYLYQYRYDYWGQGTQVTVSS | low polyreactivity
QVQLVESGGGLVQAGGSLRLSCAASGFIFVRNAMGLYRQAPGKEREFVAAITRSGGSTYYADSVKGRFTISRDNAKNTVYLQMNSLKPEDTAVYYCAARIHGSWSFDYWGQGTQVTVSS | low polyreactivity
QVQLVESGGGLVQAGGSLRLSCAASGFIFVRNTRGWYRQAPGKERELVAAISSRGGRTYYADSVKGRFTISRDNAKNTVYLQMNSLKPEDTAVYYCAKAHSVNQRYDYWGQGTQVTVSS | high polyreactivity
QVQLVESGGGLVQAGGSLRLSCAASGFIFVRYAMGWYRQAPGKEREFVASITRSDGSTYADSVKGRFTISRDNAKNTVYIQMNSLKPEDTAVYYCNKDNHDVELPVEFEYWGQGTQVTVSS | high polyreactivity
QVQLVESGGGLVQAGGSLRLSCAASGFIFVRYAMGWYRQAPGKERELVAAISKSGGRTYYADSVKGRFTISRDNAKNTVYLQMNSLKPEDTAVYYCAAYYYVGRVVSFDYWGQGTQVTVSS | high polyreactivity
QVQLVESGGGLVQAGGSLRLSCAASGFIFVRYAMGWYRQAPGKERELVAAISSSGGTTNYADSVKGRFTISRDNAKHTVYLQMNSLKPEDTAVYYCNADYYWFFDFFDYDYWGQGTQVTVSS | low polyreactivity
QVQLVESGGGLVQAGGSLRLSCAASGFIFVVNAMGWYRQAPGKEREFVAVISSSTGSTYYADSVKGRFTISRDNAKNTVYLQMNSLKPEDTAVYYCAAASRRRRPLNRMDYWGQGTQVTVSS | low polyreactivity
QVQLVESGGGLVQAGGSLRLSCAASGFIFVYYAMGWYRQAPGKERELVAAISKRGGNTYYADSVKGRFTISRDNAKNTVYLQMNSLKPEDTAVYYCAAGFTTRRGEYNYWGQGTQVTVSS | high polyreactivity
QVQLVESGGGLVQAGGSLRLSCAASGFIFWFNALGWYRQAPGKERELVATISWSDTSTYYADSVKGRFTISRDNAKNTVYLQMNSLKPEDTAVYYCATDGRETWLPEYYWGQGTQVTVSS | low polyreactivity

From the nanobody polyreactivity screen of Harvey et al. (2022)
